Results: US20140017235A1

Target: human NGF (human) (UniProt P01138)
Assay: cell-based or functional assay

Chain of human NGF (human) (P01138 122-241 limits assumed): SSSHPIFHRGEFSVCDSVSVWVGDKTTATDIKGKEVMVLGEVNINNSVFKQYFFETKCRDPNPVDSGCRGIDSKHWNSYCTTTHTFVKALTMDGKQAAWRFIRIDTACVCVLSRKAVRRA

mouse antibody 911 (Fab)
antibody concentration that totally blocked NGF-elicited survival of trigeminal neurons: 20 nM
